Assay [1] addresses T1, human PD-L1 overexpressed on CHO cells (human, UniProt Q9NZQ7 19-290). Description: cell-based or functional assay.
Assay [2] addresses T2, PD-L1-His-Biotin (human, UniProt Q9NZQ7 19-238, biotin-labelled (sites not given)).
T2 construct: also called PD-L1-His-Biotin antigen protein
Kind of assay: flow cytometry of yeast-displayed scFv with 1 nM PD-L1-His-Biotin, Streptavidin-PE. The method, then: (§1) The yeasts described above were incubated with 1 nM of PD-L1-His-Biotin antigen protein at room temperature for 1 h, washed 3 times with PBS at pH 7.4, then incubated with Streptavidin-PE fluorescent secondary antibody at room temperature for 30 min, and washed 3 times with PBS at pH 7.4. The fresh PBS was added, and loaded on the machine for assay.
(A flow cytometer gives signals particle by particle.)

Assay [3] concerns the target T2, PD-L1-His-Biotin. Description: flow cytometry of yeast-displayed scFv with 1 nM PD-L1-His-Biotin, Streptavidin-PE; positive rate %. The method, then:
as §1

The target in assay [4] is T1, human PD-L1 overexpressed on CHO cells. Description: cell-based or functional assay. This is another data set of the same source.

The results in this text go back to US20230287126A1 (BIO THERA SOLUTIONS, published 2023).

Residue numbers refer to the chain shown, from its start. Where two headings read alike, the source gives them in different places.

T1 sequence (Q9NZQ7 19-290): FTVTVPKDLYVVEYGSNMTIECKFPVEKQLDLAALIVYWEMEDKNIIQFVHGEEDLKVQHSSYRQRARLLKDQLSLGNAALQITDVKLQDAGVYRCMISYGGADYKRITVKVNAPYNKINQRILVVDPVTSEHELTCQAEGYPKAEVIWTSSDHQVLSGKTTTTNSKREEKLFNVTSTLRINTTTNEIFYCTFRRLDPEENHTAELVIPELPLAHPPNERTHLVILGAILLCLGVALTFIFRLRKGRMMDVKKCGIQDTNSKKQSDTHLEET
T2 sequence (Q9NZQ7 other isoform, or with tags, fused parts or gaps): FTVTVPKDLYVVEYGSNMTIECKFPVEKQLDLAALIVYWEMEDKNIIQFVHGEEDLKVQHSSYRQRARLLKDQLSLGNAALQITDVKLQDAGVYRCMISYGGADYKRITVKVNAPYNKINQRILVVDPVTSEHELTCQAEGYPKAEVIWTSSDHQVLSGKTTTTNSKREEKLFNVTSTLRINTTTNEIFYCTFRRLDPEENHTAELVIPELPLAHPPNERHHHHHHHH

B1: L1-R2-78 (antibody, V domains shown)
VH: not shown
VL: DIQMTQSPSSFSASTGDRVTITCRASQGISSYLAWYQQKPGKAPKLLIYAASRLQSGVPSRFSGSGSGTDFTLTISSLQAEDVAVYYCQQYYSTPYTFGQGTKVDIKR
As for B1, in assay [1], the “EC50 (luciferase reporter luminescence, PD-1/PD-L1 Blockade Bioassay, CHO-PD-L1 + Jurkat-PD1 cells)” value (“EC50” for short) is 3.57 µg/mL.

B2: CP11-71 scFv (scFv)
scFv: EVQLVESGGGLVQPGGSLRLSCAASGFTFSDSWIHWVRQAPGKGLEWVGWISPYGGSTYYADSYRSRFTISADTSKNTAYLQMNSLRAEDTAVYYCARRHWPGGFDYWGQGTLVTVSSGGGGSGGGGSGGGGSEIVLTQSPSSLSASVGDRVTITCLASQTIGTWLAWYQQKPGKSPQLLIYAASTLQSGVPSRFSGSGSGTDFTLTISSLQPEDVATYYCQQYYSTPRTFGQGTKVEIK
notes: display fusion partner not described; VH at N terminus
Consider B2, for which the binding result in assay [2] was “binds”.

B3: CP22-44 (scFv)
scFv (VH - linker - VL, VH at the N terminus): B2 scFv with F27L, T28R, F29P, S30A, Y64V, R65K, S66G
notes: also called CP22-44 scFv
Consider B3, for which, in assay [3], the binding result is reported as “binds”.

B4: CP22-40 (scFv)
scFv (VH - linker - VL, VH at the N terminus): B2 scFv with Y64V, R65K, S66G, F105L, D106L, Y107P
notes: also called CP22-40 scFv
For B4, the binding result in assay [3] is “binds”.

B5: CP21-59 (scFv)
scFv (VH - linker - VL, VH at the N terminus): B2 scFv with G26S, T28S, F29L, S30K, Y64V, R65K, S66G
notes: also called CP21-59 scFv
Turning to B5, in assay [3], the binding result is on record as “binds”.

B6: CP22-45 (scFv)
scFv (VH - linker - VL, VH at the N terminus): B2 scFv with G26N, F27S, T28H, F29L, S30R, Y64V, R65K, S66G
notes: also called CP22-45 scFv
On to B6, for which the binding result in assay [3] was “binds”.

B7: L1-R2-6 (antibody, V domains shown)
VH: not shown
VL: EIVLTQSPSSVSASVGDKLTMTCQASQDIGKHLNWYQQKPGKPPKLLIYGASNLKTGVPSRFSGTGSGTDFTLTISSLQPEDFATYYCQQSYTTPYTFGQGTRLEIKR
Turning to B7, in assay [1], the “EC50” value was found to be 3.92 µg/mL.

B8: L1-R2-18 (antibody, V domains shown)
VH: not shown
VL: EIVLTQSPSSVSASVGDRITITCRASQGIGSWLAWYQQKPGKAPSLLIYAASSLQSGVPSRFSGSGSGTDFTLTISSLQTEDVAVYYCQQYFSTPYTFGQGTKVDIKR
For the molecule B8, the “EC50” value in assay [1] stood at 5.09 µg/mL.

B9: L1-R2-85 (antibody, V domains shown)
VH: not shown
VL: B8 VL with E1D, V3Q, L4M, V11L, I19V, T22P, S31K, W32F
As for B9, the “EC50” value in assay [1] was 5.22 µg/mL.

B10: L1-R2-4 (antibody, V domains shown)
VH: not shown
VL: EIVLTQSPSSLSASVGDRVTITCLASQTIGTWLAWYQQKPGKSPQLLIYAASTLQSGVPSRFSGSGSGTDFTLTISSLQPEDVATYYCQQYYSTPRTFGQGTKVEIKR
Consider B10, for which, in assay [1], the “EC50” value is 2.74 µg/mL.

B11: L1-R2-4-71 (antibody, human IgG1, kappa, V domains shown)
VH: EVQLVESGGGLVQPGGSLRLSCAASGFTFSDSWIHWVRQAPGKGLEWVGWISPYGGSTYYADSYRSRFTISADTSKNTAYLQMNSLRAEDTAVYYCARRHWPGGFDYWGQGTLVTVSS
VL: B10 VL
As for B11, the “EC50” value in assay [4] amounted to 0.382 µg/mL.

B12: L1-R2-4-46 (antibody, human IgG1, kappa, V domains shown)
VH: B11 VH with Y64L, R65G, S66D
VL: B10 VL
Consider B12, for which, in assay [4], the “EC50” value stood at 0.224 µg/mL.

B13: L1-R2-89 (antibody, V domains shown)
VH: not shown
VL: B10 VL with E1D, V3Q, L4M, T53S, R96Y, E105D
For B13, the “EC50” value in assay [1] was determined as 3.78 µg/mL.

B14: L1-R2-4-55 (antibody, human IgG1, kappa, V domains shown)
VH: B11 VH with S63G, Y64M
VL: B10 VL
For B14, the “EC50” value in assay [4] came to 0.401 µg/mL.

B15: L1-R2-4-36 (antibody, human IgG1, kappa, V domains shown)
VH: B11 VH with S63D, Y64F, S66H
VL: B10 VL
B15: the “EC50” value in assay [4] came to 0.148 µg/mL.

B16: L1-R2-4-47 (antibody, human IgG1, kappa, V domains shown)
VH: B11 VH with S63H, Y64L, R65S, S66Q
VL: B10 VL
In the case of B16, in assay [4], the “EC50” value is 0.389 µg/mL.
